Experimental data published in the supplement of paper PMC10567573.

B1: MIA2 (parent)
chain: NSISSDKEATVPCTEILTEKKDTI

Variants of: B1
Experiment: protein stability index of a GFP-peptide fusion (GPS, HEK-293T) (PSI 1-6); higher = more stable
Settings: c terminus: a fixed tail appended
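Further: lentivirally expressed fusions sorted by FACS into six bins by GFP to DsRed ratio, PSI derived from sequencing read proportions per bin multiplied by bin number.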

Variant | protein stability index
E8V | 4.99
E8G | 5.37
E8L | 5.31
E8Y | 4.95
E8W | 4.73
E8S | 5.46
E8C | 5.27
E8P | 5.27
E8M | 5.14
E8D | 5.5
E8Q | 5.52
E8F | 4.93
E8K | 5.46
E8R | 5.74
K20F | 4.64
K20R | 5.17
K20L | 4.94
K20E | 5.53
K20W | 4.54
K20D | 5.68
K20H | 5.42
K20G | 5.47
K20T | 5.48
K20P | 5.3

Variant | protein stability index
K20V | 5.31
K20Q | 5.39
K20Y | 4.75
K20C | 5.25
K20N | 5.53
K20A | 5.34
I16R | 5.57
I16E | 5.62
I16S | 5.41
I16Q | 5.65
I16P | 5.52
I16V | 5.45
I16H | 5.49
I16N | 5.47
I16W | 5.26
I16M | 5.49
I16T | 5.63
I16Y | 5.12
I16C | 5.27
I16K | 5.64
T10R | 4.85
T10F | 5.27
T10V | 5.29
T10K | 5.24

Variant | protein stability index
T10I | 5.2
T10W | 5.07
T10C | 5.5
T10N | 5.6
T10E | 5.82
T10M | 5.17
T10A | 5.65
T10Y | 4.63
T10P | 5.32
C13I | 5.54
C13D | 5.54
C13V | 5.58
C13R | 4.99
C13S | 5.65
C13A | 5.27
C13N | 5.7
C13G | 5.49
C13T | 5.66
C13Q | 5.57
C13H | 5.15
C13L | 5.25
C13F | 5.28
L17C | 5.51
L17Y | 5.37

Variant | protein stability index
L17H | 5.21
L17I | 5.34
L17S | 5.57
L17N | 5.4
L17A | 5.8
L17T | 5.71
L17V | 5.18
L17R | 5.45
L17E | 5.78
L17P | 5.62
L17G | 5.64
T23K | 5.54
T23I | 5.09
T23N | 5.24
T23F | 4.83
T23Q | 5.55
T23C | 5.46
T23P | 5.65
T23Y | 5.1
T23E | 5.61
T23A | 5.55
T23R | 5.13
T23V | 5.32
T23H | 5.3

Variant | protein stability index
T23W | 4.17
T23L | 5.37
T14R | 5.33
T14D | 5.88
T14Q | 5.13
T14V | 5.42
T14S | 5.36
T14K | 5.49
T14L | 4.99
T14G | 5.09
T14W | 4.74
T14Y | 5.1
T14I | 5.21
T14C | 5.39
T14N | 5.42
T14E | 5.49
P12C | 5.28
P12M | 5.21
P12F | 4.92
P12Q | 5.4
P12N | 5.51
P12R | 5.38
P12E | 5.57
P12I | 5.11

Variant | protein stability index
P12Y | 4.34
P12H | 5
I24T | 5.67
I24H | 5.45
I24R | 5.36
I24V | 5.63
I24F | 5.33
I24N | 5.7
I24A | 5.66
I24Y | 5.36
I24D | 5.72
I24M | 5.52
I24K | 5.35
I24E | 5.81
I24P | 5.66
I24L | 5.32
I24W | 5.32
N1G | 5.24
N1K | 5.76
N1P | 5.68
N1V | 5
N1E | 5.73
N1D | 5.25
N1T | 5.05

Variant | protein stability index
N1C | 5.27
N1L | 5.09
N1A | 5.42
N1S | 5.62
N1R | 5.48
N1W | 4.89
N1Q | 5.44
N1F | 4.77
N1H | 5.44
K21H | 5.15
K21R | 5.39
K21T | 5.51
K21L | 5.42
K21C | 5.27
K21F | 5.07
K21I | 5.14
K21N | 5.48
K21S | 5.37
K21G | 5.16
K21Q | 5
K21E | 5.69
K21M | 5.7
K21V | 5.1
D22G | 5.33

Variant | protein stability index
D22Y | 4.53
D22W | 3.49
D22A | 5.35
D22C | 4.97
D22V | 4.31
D22Q | 5.11
D22K | 5.16
D22L | 4.57
D22H | 4.94
D22F | 4.5
D22T | 5.04
D22R | 4.89
D22N | 5.21
T18N | 5.46
T18W | 5.05
T18M | 4.89
T18I | 5.19
T18V | 5.12
T18D | 5.72
T18F | 5.48
T18E | 5.63
T18A | 4.93
T18S | 5.39
T18K | 5.42

Variant | protein stability index
T18Q | 5.4
T18C | 5.05
T18P | 5.26
T18Y | 5.19
I3S | 5.42
I3F | 5.38
I3G | 5.54
I3D | 5.44
I3W | 5.52
I3L | 5.02
I3Y | 5.58
I3R | 5.7
I3H | 5.43
I3Q | 5.6
I3T | 4.68
I3P | 5.36
I3E | 5.51
I3N | 5.7
S5I | 5.17
S5E | 5.67
S5N | 5.69
S5Y | 5.23
S5Q | 5.43
S5T | 5.39

Variant | protein stability index
S5G | 5.42
S5A | 5.33
S5H | 5.47
S5F | 4.94
S5P | 5.59
S5C | 5.25
S5L | 5.42
S4D | 5.54
S4T | 5.25
S4W | 5.11
S4P | 5.24
S4C | 5.67
S4M | 5.43
S4V | 5.32
S4H | 5.5
S4L | 5.21
S4R | 5.35
S4Q | 5.63
S4Y | 5.44
S4G | 4.98
S4K | 5.29
S4N | 5.18
S4F | 4.76
V11E | 5.52

Variant | protein stability index
V11A | 5.38
V11K | 5.59
V11I | 5.28
V11C | 4.84
V11F | 5.43
V11T | 5.67
V11D | 5.72
V11Q | 5.53
V11Y | 4.89
V11N | 5.49
V11L | 5.41
V11R | 5.28
V11S | 5.22
A9F | 5.36
A9I | 5.3
A9E | 5.28
A9D | 5.11
A9Y | 5.05
A9H | 5.32
A9L | 5.32
A9N | 4.88
A9P | 5.38
A9M | 5.59
A9K | 5.47

Variant | protein stability index
A9T | 5.38
K7R | 5.07
K7D | 5.4
K7T | 5.49
K7N | 5.51
K7Q | 5.25
K7Y | 5.17
K7G | 5.8
K7P | 5.62
K7L | 5.52
K7C | 5.31
K7F | 4.95
K7E | 5.21
K7I | 5.27
K7A | 5.07
K7M | 4.95
K7V | 4.95
E19L | 4.43
E19N | 5.32
E19I | 4.72
E19Q | 5.22
E19A | 5.34
E19Y | 5.06
E19R | 5.42

Variant | protein stability index
E19F | 4.62
E19W | 4.59
E19C | 5.21
E19S | 5.3
E19T | 5.17
E19H | 5.03
E19G | 5.22
E15G | 4.92
E15F | 4.46
E15D | 5.45
E15A | 5.24
E15M | 4.68
E15Q | 5.32
E15H | 5.04
E15S | 5.34
E15R | 4.9
E15V | 4.66
E15C | 4.8
D6W | 4.62
D6Q | 5.12
D6G | 5.28
D6A | 5.45
D6R | 4.9
D6L | 5.06

Variant | protein stability index
D6F | 4.84
D6I | 4.98
D6C | 4.52
D6T | 5.31
D6E | 5.63
D6M | 5
D6K | 5.2
D6Y | 4.71
S2K | 5.19
S2V | 5.46
S2F | 5.37
S2E | 5.67
S2R | 5.26
S2W | 5.05
S2C | 5.27
S2M | 5.54
S2T | 5.1
S2L | 5.37
S2N | 5.66
S2I | 5.32
S2Q | 5.33
S2H | 5.09
